Assay results reported in article PMC11178898, “A clade of receptor-like cytoplasmic kinases and 14-3-3 proteins coordinate inositol hexaphosphate accumulation” (Nature Communications, 2024).

B1: GRF4, Split-LUC fusion [Arabidopsis thaliana] / PI-PLC2, Split-LUC fusion [Arabidopsis thaliana] (parent)
chain 1: MAAPPASSSAREEFVYLAKLAEQAERYEEMVEFMEKVAEAVDKDELTVEERNLLSVAYKNVIGARRASWRIISSIEQKEESRGNDDHVTTIRDYRSKIESELSKICDGILKLLDTRLVPASANGDSKVFYLKMKGDYHRYLAEFKTGQERKDAAEHTLTAYKAAQDIANAELAPTHPIRLGLALNFSVFYYEILNSPDRACNLAKQAFDEAIAELDTLGEESYKDSTLIMQLLRDNLTLWTSDMQDESPEEIKEAAAPKPAEEQKEI
chain 2: MSKQTYKVCFCFRRRFRYTASEAPREIKTIFEKYSENGVMTVDHLHRFLIDVQKQDKATREDAQSIINSASSLLHRNGLHLDAFFKYLFGDNNPPLALHKVHHDMDAPISHYFIFTGHNSYLTGNQLSSDCSEVPIIDALKKGVRVIELDIWPNSNKDDIDVLHGMTLTTPVGLIKCLKAIRAHAFDVSDYPVVVTLEDHLTPDLQSKVAEMVTEIFGEILFTPPVGESLKEFPSPNSLKRRIIISTKPPKEYKEGKDVEVVQKGKDLGDEEVWGREVPSFIQRNKSEAKDDLDGNDDDDDDDDEDKSKINAPPQYKHLIAIHAGKPKGGITECLKVDPDKVRRLSLSEEQLEKAAEKYAKQIVRFTQHNLLRIYPKGTRVTSSNYNPLVGWSHGAQMVAFNMQGYGRSLWLMQGMFRANGGCGYIKKPDLLLKSGSDSDIFDPKATLPVKTTLRVTVYMGEGWYFDFRHTHFDQYSPPDFYTRVGIAGVPGDTVMKKTKTLEDNWIPAWDEVFEFPLTVPELALLRLEVHEYDMSEKDDFGGQTCLPVWELSEGIRAFPLHSRKGEKYKSVKLLVKVEFV

Variants of: B1
Experiment: Split-LUC
Settings: with PI-PLC2, Split-LUC fusion [Arabidopsis thaliana]; P3: nluc-GRF4 S242A, cluc-PI-PLC2, 35S::IPCK1-flag co-infiltrated (1:1:2); Total cps 91336, Areas 49.23; parent value is P1, which the printed layout grid …; parent: 1.67e+03

Row | Variant | response (cps (average))
1 | chain 1 S242A | 1860

Same assay, conditions: with PI-PLC2, Split-LUC fusion [Arabidopsis thaliana]; P4: nluc-GRF4 S242D, cluc-PI-PLC2, 35S::IPCK1-flag co-infiltrated (1:1:2); Total cps 150882, Areas 56.84; parent value is P1, which the printed layout grid …; parent: 1.67e+03

Row | Variant | response (cps (average))
2 | chain 1 S242D | 2650
